Experiments:
Type in all cases: biochemical
[1] = HPAE-PAD check of transglycosylation products from ONPG; conditions: HIGAL 110 μg/ml; ONPG 5 mg/ml with and without Gal2 or Gal3 0.05 mg/ml; room temperature, pH 6.5
Method: Using HPAE-PAD chromatography (Dionex LC-500 System, PA-100 column, linear gradient of 0-0.6 M sodium acetate in 100 mM NaOH), the production of larger oligosaccharides from transglycosylation upon incubation of HIGAL (110 μg/ml) at room temperature (0.5 to 14 min followed by heat inactivation for 10 min at 95° C. resulting in A405: 0.15-0.67) in 50 mM sodium acetate, 1 mM CaCl2, 0.01% Triton X-100, pH 6.5 with ONPG (5 mg/ml) with and without Gal2 (0.05 mg/ml) or Gal3 (0.05 mg/ml) as acceptor was verified.

[2] = Activity on galactotriose (Gal3); conditions: up to 24 hours; buffer, pH and temperature per enzyme
Method: (§1) The activity on the galacto-oligosaccharide substrates prepared as described above and on the commercially available galactobiose (Gal2, Megazyme) was studied for the four purified galactanases HIGAL, MTGAL, AAGAL and BLGAL. The buffers and temperatures used were: 25 mM sodium acetate, 0.5 mM CaCl2, 0.005% Triton X-100, pH 6.5 at 37° C. for HIGAL and MTGAL, 50 mM sodium acetate, 1 mM CaCl2, pH 4 at 30° C. for AAGAL and 50 mM Mes, 1 mM CaCl2, pH 6.5 at 30° C. for BLGAL. Enzyme concentrations used were 0.8 μg/ml for HIGAL, 0.2 microgram/ml for MTGAL, and 10 micrograms/ml for AAGAL and BLGAL. With HIGAL and MTGAL substrate concentrations were all 0.25 mg/ml, whereas 0.34 mg/ml Gal2, 0.050 mg/ml Gal3 and 0.067 mg/ml Gal4 were used for AAGAL and BLGAL. Enzyme activity in samples withdrawn after various incubation times was inactivated by heating to 95° C. for 10 min. Compositions of reaction products were analysed using HPAE-PAD (Dionex) applying a PA-100 column and a linear gradient of sodium acetate (0-0.18 M) in 0.15 M NaOH. Response factors of the individual carbohydrates were estimated from reference runs with MeGal3, MeGal4, Gal, Gal2, Gal3 and Gal4. Selected results are shown in Tables 2-8 below (the figures indicating weight percentage of glactooligosaccharides).

[3] = Degradation of MeGal3, products by HPAE-PAD; conditions: for Gal2 in reaction products / Gal3 in reaction products / Gal in reaction products / MeGal2 in reaction products / MeGal3 in reaction products / MeGal in reaction products: MeGal3 0.25 mg/ml, pH 6.5, 37° C.; for Release of MeGal versus MeGal2 from MeGal3: in words
Method: as §1

[4] = Activity on lactose, products by HPAE-PAD; conditions: lactose 100 mg/ml, 50° C.
[5] = pH profile of galactanase activity on lupin AZCL-galactan; conditions: 15 min at 37° C., A590, unit assumed
Method: The pH profiles of the purified variants described above were established as follows: Galactanase activity at various pH was measured by mixing 500 μl 4 mg/ml lupin AZCL-galactan (Megazyme, Australia) in water with 500 μl buffer (50 mM sodium acetate, 50 mM potassium dihydrogenphosphate, 50 mM boric acid, 1 mM CaCl2, 0.01% Triton X-100 adjusted to pH 2.5, 3.5, 4.5, 5.5, 6.5, 7.5, 8.5 or 9.5 with HCl/NaOH) and 25 μl purified enzyme diluted to about 0.5-2 μg/ml in water. The mixture was incubated 15 min at 37° C., insoluble material was removed by centrifugation, and absorbance in the supernatant was measured at 590 nm.

[6] = pH 4.5, incubation time 2 hours
[7] = pH 4.5, incubation time 23 hours
[8] = pH 4.5, incubation time 120 hours
[9] = pH 6.45, incubation time 120 hours

B1: HIGAL: GH Family 53 galactanase from Humicola insolens, SEQ ID NO: 2 (wild type parent) (protein, listed as Humicola insolens)
chain: ALQYKGVDWSSVMVEERAGVRYKNVNGQEKPLEYILAENGVNMVRQRVWVNPWDGNYNLDYNIQLARRAKAAGLGLYINFHYSDTWADPAHQTTPAGWPSDINNLAWKLYNYTLDSMNRFADAGIQVDIVSIGNEITQGLLWPLGKTNNWYNIARLLHSAAWGVKDSRLNPKPKIMVHLDNGWNWDTQNWWYTNVLSQGPFEMSDFDMMGVSFYPFYSASATLDSLRRSLNNMVSRWGKEVAVVETNWPTSCPYPRYQFPADVRNVPFSAAGQTQYIQSVANVVSSVSKGVGLFYWEPAWIHNANLGSSCADNTMFTPSGQALSSLSVFHRI
modifications: mat_peptide (1)..()
Production of larger oligosaccharides from transglycosylation [1]: verified
Activity on Gal3, products [2]: degraded Gal3 to Gal2 and Gal
Gal2 in reaction products ([3]; incubation time 0.0 hours): 0.0 weight percentage
Gal3 in reaction products ([3]; incubation time 0.0 hours): 0.0 weight percentage
Gal in reaction products ([3]; incubation time 0.0 hours): 0.0 weight percentage
MeGal2 in reaction products ([3]; incubation time 0.0 hours): 0.0 weight percentage
MeGal3 in reaction products ([3]; incubation time 0.0 hours): 100.0 weight percentage
MeGal in reaction products ([3]; incubation time 0.0 hours): 0.0 weight percentage
Gal2 in reaction products ([3]; incubation time 0.5 hours): 3.9 weight percentage
Gal3 in reaction products ([3]; incubation time 0.5 hours): 1.2 weight percentage
Gal in reaction products ([3]; incubation time 0.5 hours): 0.0 weight percentage
MeGal2 in reaction products ([3]; incubation time 0.5 hours): 3.3 weight percentage
MeGal3 in reaction products ([3]; incubation time 0.5 hours): 80.3 weight percentage
MeGal in reaction products ([3]; incubation time 0.5 hours): 11.4 weight percentage
Gal2 in reaction products ([3]; incubation time 2.2 hours): 12.5 weight percentage
Gal3 in reaction products ([3]; incubation time 2.2 hours): 3.3 weight percentage
Gal in reaction products ([3]; incubation time 2.2 hours): 2.3 weight percentage
MeGal2 in reaction products ([3]; incubation time 2.2 hours): 3.7 weight percentage
MeGal3 in reaction products ([3]; incubation time 2.2 hours): 59.7 weight percentage
MeGal in reaction products ([3]; incubation time 2.2 hours): 18.4 weight percentage
Gal2 in reaction products ([3]; incubation time 5.0 hours): 20.2 weight percentage
Gal3 in reaction products ([3]; incubation time 5.0 hours): 10.6 weight percentage
Gal in reaction products ([3]; incubation time 5.0 hours): 3.0 weight percentage
MeGal2 in reaction products ([3]; incubation time 5.0 hours): 5.2 weight percentage
MeGal3 in reaction products ([3]; incubation time 5.0 hours): 24.2 weight percentage
MeGal in reaction products ([3]; incubation time 5.0 hours): 36.8 weight percentage
Gal2 in reaction products ([3]; incubation time 72.0 hours): 36.2 weight percentage
Gal3 in reaction products ([3]; incubation time 72.0 hours): 8.0 weight percentage
Gal in reaction products ([3]; incubation time 72.0 hours): 17.1 weight percentage
MeGal2 in reaction products ([3]; incubation time 72.0 hours): 4.2 weight percentage
MeGal3 in reaction products ([3]; incubation time 72.0 hours): 0.0 weight percentage
MeGal in reaction products ([3]; incubation time 72.0 hours): 34.6 weight percentage
Release of MeGal versus MeGal2 from MeGal3 [3]: much higher release of MeGal than MeGal2

B2: MTGAL: GH Family 53 galactanase from Myceliophthora thermophila, SEQ ID NO: 1 (wild type parent) (protein, listed as Myceliophthora thermophila)
chain: ALTYRGVDWSSVVVEERAGVSYKNTNGNAQPLENILAANGVNTVRQRVWVNPADGNYNLDYNIAIAKRAKAAGLGVYIDFHYSDTWADPAHQTMPAGWPSDIDNLSWKLYNYTLDAANKLQNAGIQPTIVSIGNEIRAGLLWPTGRTENWANIARLLHSAAWGIKDSSLSPKPKIMIHLDNGWDWGTQNWWYTNVLKQGTLELSDFDMMGVSFYPFYSSSATLSALKSSLDNMAKTWNKEIAVVETNWPISCPNPRYSFPSDVKNIPFSPEGQTTFITNVANIVSSVSRGVGLFYWEPAWIHNANLGSSCADNTMFSQSGQALSSLSVFQRI
modifications: mat_peptide (1)..()
Activity on Gal3, products [2]: degraded Gal3 to Gal2 and Gal
Gal2 in reaction products ([3]; incubation time 0.0 hours): 0.0 weight percentage
Gal3 in reaction products ([3]; incubation time 0.0 hours): 0.0 weight percentage
Gal in reaction products ([3]; incubation time 0.0 hours): 0.0 weight percentage
MeGal2 in reaction products ([3]; incubation time 0.0 hours): 0.0 weight percentage
MeGal3 in reaction products ([3]; incubation time 0.0 hours): 100.0 weight percentage
MeGal in reaction products ([3]; incubation time 0.0 hours): 0.0 weight percentage
Gal2 in reaction products ([3]; incubation time 0.5 hours): 0.0 weight percentage
Gal3 in reaction products ([3]; incubation time 0.5 hours): 0.0 weight percentage
Gal in reaction products ([3]; incubation time 0.5 hours): 0.0 weight percentage
MeGal2 in reaction products ([3]; incubation time 0.5 hours): 2.7 weight percentage
MeGal3 in reaction products ([3]; incubation time 0.5 hours): 87.2 weight percentage
MeGal in reaction products ([3]; incubation time 0.5 hours): 10.1 weight percentage
Gal2 in reaction products ([3]; incubation time 2.2 hours): 8.5 weight percentage
Gal3 in reaction products ([3]; incubation time 2.2 hours): 0.4 weight percentage
Gal in reaction products ([3]; incubation time 2.2 hours): 14.1 weight percentage
MeGal2 in reaction products ([3]; incubation time 2.2 hours): 1.9 weight percentage
MeGal3 in reaction products ([3]; incubation time 2.2 hours): 47.5 weight percentage
MeGal in reaction products ([3]; incubation time 2.2 hours): 27.6 weight percentage
Gal2 in reaction products ([3]; incubation time 5.0 hours): 10.9 weight percentage
Gal3 in reaction products ([3]; incubation time 5.0 hours): 15.7 weight percentage
Gal in reaction products ([3]; incubation time 5.0 hours): 2.2 weight percentage
MeGal2 in reaction products ([3]; incubation time 5.0 hours): 3.2 weight percentage
MeGal3 in reaction products ([3]; incubation time 5.0 hours): 50.6 weight percentage
MeGal in reaction products ([3]; incubation time 5.0 hours): 17.4 weight percentage
Gal2 in reaction products ([3]; incubation time 72.0 hours): 37.2 weight percentage
Gal3 in reaction products ([3]; incubation time 72.0 hours): 23.2 weight percentage
Gal in reaction products ([3]; incubation time 72.0 hours): 6.5 weight percentage
MeGal2 in reaction products ([3]; incubation time 72.0 hours): 3.5 weight percentage
MeGal3 in reaction products ([3]; incubation time 72.0 hours): 1.3 weight percentage
MeGal in reaction products ([3]; incubation time 72.0 hours): 28.3 weight percentage
Release of MeGal versus MeGal2 from MeGal3 [3]: much higher release of MeGal than MeGal2
DP3 in products [4, 6]: 2.0 weight %
DP4+ in products [4, 6]: 0.5 weight %
Glu/Gal in products [4, 6]: 1.4 weight %
Lac/Gal2 in products [4, 6]: 96.0 weight %
DP3 in products [4, 7]: 7.0 weight %
DP4+ in products [4, 7]: 1.8 weight %
Glu/Gal in products [4, 7]: 12.5 weight %
Lac/Gal2 in products [4, 7]: 78.7 weight %
DP3 in products [4, 8]: 8.9 weight %
DP4+ in products [4, 8]: 1.1 weight %
Glu/Gal in products [4, 8]: 38.8 weight %
Lac/Gal2 in products [4, 8]: 51.2 weight %
DP4+ in products ([4]; pH 6.45, incubation time 2 hours): 1.9 weight %
DP4+ in products ([4]; pH 6.45, incubation time 23 hours): 1.9 weight %
DP3 in products [4, 9]: 11.7 weight %
DP4+ in products [4, 9]: 4.7 weight %
Lac/Gal2 in products [4, 9]: 62.6 weight %
Conversion of Lac ([4]; pH 4.5 and 6.5): significant conversion of Lac
Galactanase activity at pH 2.5 ([5]; pH 2.5): 0%
Galactanase activity at pH 3.5 ([5]; pH 3.5): 12%
Galactanase activity at pH 4.5 ([5]; pH 4.5): 41%
Galactanase activity at pH 5.5 ([5]; pH 5.5): 63%
Galactanase activity at pH 6.5 ([5]; pH 6.5): 90%
Galactanase activity at pH 7.5 ([5]; pH 7.5): 100%
Galactanase activity at pH 8.5 ([5]; pH 8.5): 54%
Galactanase activity at pH 9.5 ([5]; pH 9.5): 7%
